Data published in US7816499B2, “Antibodies that selectively bind HDAC9” (Sloan-Kettering Institute for Cancer Research, priority 2001, dated 2010).

Legend:
HDAC9-FLAG = HDAC9-FLAG (Homo sapiens, UniProt Q9UKV0); settings: FLUOR DE LYS substrate; TSA 1 μM (FIG. 7), preincubated 15 minutes at room temperature; SAHA concentration not given
HDAC9a-FLAG [1] = target: T1, HDAC9a-FLAG (Homo sapiens, UniProt Q9UKV0); settings: FLUOR DE LYS substrate; TSA 1 μM (FIG. 7), preincubated 15 minutes at room temperature; SAHA concentration not given
HDAC9a-FLAG [2] = target: T1, HDAC9a-FLAG; experiment: HDAC enzymatic assay, 3H-acetic acid released from 3H-histones; assay type: biochemical; parameters: made in house; host or cells: human kidney 293T cells, transient transfection, anti-FLAG M2 agarose immunoprecipitation, elution with FLAG peptide; settings: 3H-histones substrate; SAHA 2 μM (FIG. 8); preincubated 30 minutes at 4° C.
Description: The reaction was stopped by the addition of 1M HCl/0.1 acetic acid. Released ^3H-acetic acid was extracted with ethyl acetate and quantified by scintillation counting. For inhibition studies, the immunoprecipitated complexes were preincubated with the different HDAC inhibitors for 30 minutes at 4° C.

[3] = HDAC enzymatic activity of immunoprecipitated HDAC9/HDAC9a compared with HDAC4; assay type: biochemical; settings: comparable amount of protein; immunoprecipitated from 293T cells
MEF2 = experiment: Anti-FLAG immunoprecipitation and anti-MEF2 Western blot; assay type: binding, human; settings: 293T cells, anti-FLAG IP, anti-MEF2 Western
Description: The Xenopus homolog of HDRP, MITR, was identified as a MEF2 interacting transcriptional repressor (Sparrow et al., EMBO J. 18:5085-5098(1999)) and mouse HDRP also interacts with and represses MEF2 mediated transcription (Zhang et al., J. Biol. Chem. 276:35-39 (2001)). […] 293 cells were transfected with vector, HDAC9-FLAG, or HDAC9a-FLAG. […] Western blot analysis of the immunoprecipitated proteins was carried out, using anti-MEF-2 antibody to probe the blot.

[4] = tested on: MEF2C mediated transcriptional activation; experiment: p3XMEF2-luciferase reporter assay in 293T cells; assay type: cell-based, human; settings: p3XMEF2-Luc; for repression of MEF2C mediated transcriptional activation: 1 ng, 10 ng, or 100 ng of plasmid; for MEF2C mediated transcriptional activation at the 100 ng dose: 100 ng plasmid
Description: It was then determined whether HDAC9 and HDAC9a repress MEF2-mediated transcription. This determination was carried out as follows. The p3XMEF2-luciferase reporter gene (100 ng) and the vector pRL-TK (Promega) (5 ng) were co-transfected into 293T cells in the absence (pcDNA3 empty vector) or presence of MEF2C (100 ng of pCMV-MEF2C). HDAC9-F (1 ng, 10 ng, or 100 ng of pFLAG-HDAC9; pFLAG-HDAC9 and HDAC9-FLAG are different constructs, with the FLAG sequence located at opposite ends of the HDAC9 nucleotide, but are functionally equivalent) or HDAC9a-F (1 ng, 10 ng, or 100 ng of pFLAG-HDAC9a; pFLAG-HDAC9a and HDAC9a-FLAG are different constructs, with the FLAG sequence located at opposite ends of the HDAC9a nucleotide, but are functionally equivalent) was included in a subset of experimental groups with the MEF2C vector. pFLAG empty vector was used to adjust the DNA to an equal amount in each transfection. The cells were harvested 24 to 36 hours after transfection and the luciferase activities were measured using the Dual-Luciferase™ Reporter Assay System from Promega according to the manufacturer's instruction. The firefly luciferase activity was first normalized to the co-transfected Renilla luciferase activity (encoded by the pRL-TK vector), and the luciferase activity value for cells transfected with MEF2C alone was set at 1. MEF2C activated transcription over 30 times the basal level of transcription. […] The transcriptional repression effect of HDAC9 and HDAC9a on MEF2C mediated transcription was a specific effect since a co-transfected reporter gene for transfection efficiency containing a TK promoter was not repressed by HDAC9 or HDAC9a.

O=C(CCCCCCC(=O)Nc1ccccc1)NO [SAHA, suberoylanilide hydroxamic acid]
inhibition of HDAC9 deacetylase activity (HDAC9-FLAG): completely inhibited
inhibition of HDAC9a deacetylase activity (HDAC9a-FLAG [1]): completely inhibited
inhibition of histone deacetylase activity of HDAC9a-FLAG (HDAC9a-FLAG [2]): completely inhibited

B1: HDAC9: novel class II histone deacetylase, 1011 amino acids (SEQ ID NO: 2); tested as FLAG-tagged protein (protein, listed as Homo sapiens)
chain: MHSMISSVDVKSEVPVGLEPISPLDLRTDLRMMMPVVDPVVREKQLQQELLLIQQQQQIQKQLLIAEFQKQHENLTRQHQAQLQEHIKELLAIKQQQELLEKEQKLEQQRQEQEVERHRREQQLPPLRGKDRGRERAVASTEVKQKLQEFLLSKSATKDTPTNGKNHSVSRHPKLWYTAAHHTSLDQSSPPLSGTSPSYKYTLPGAQDAKDDFPLRKTASEPNLKVRSRLKQKVAERRSSPLLRRKDGNVVTSFKKRMFEVTESSVSSSSPGSGPSSPNNGPTGSVTENETSVLPPTPHAEQMVSQQRILIHEDSMNLLSLYTSPSLPNITLGLPAVPSQLNASNSLKEKQKCETQTLRQGVPLPGQYGGSIPASSSHPHVTLEGKPPNSSHQALLQHLLLKEQMRQQKLLVAGGVPLHPQSPLATKERISPGIRGTHKLPRHRPLNRTQSAPLPQSTLAQLVIQQQHQQFLEKQKQYQQQIHMNKLLSKSIEQLKQPGSHLEEAEEELQGDQAMQEDRAPSSGNSTRSDSSACVDDTLGQVGAVKVKEEPVDSDEDAQIQEMESGEQAAFMQQPFLEPTHTRALSVRQAPLAAVGMDGLEKHRLVSRTHSSPAASVLPHPAMDRPLQPGSATGIAYDPLMLKHQCVCGNSTTHPEHAGRIQSIWSRLQETGLLNKCERIQGRKASLEEIQLVHSEHHSLLYGTNPLDGQKLDPRILLGDDSQKFFSSLPCGGLGVDSDTIWNELHSSGAARMAVGCVIELASKVASGELKNGFAVVRPPGHHAEESTAMGFCFFNSVAITAKYLRDQLNISKILIVDLDVHHGNGTQQAFYADPSILYISLHRYDEGNFFPGSGAPNEVGTGLGEGYNINIAWTGGLDPPMGDVEYLEAFRTIVKPVAKEFDPDMVLVSAGFDALEGHTPPLGGYKVTAKCFGHLTKQLMTLADGRVVLALEGGHDLTAICDASEACVNALLGNELEPLAEDILHQSPNMNAVISLQKIIEIQSMSLKFS
modifications: FLAG tag
notes: tested as FLAG-tagged protein
HDAC activity relative to the deacetylase activity of HDAC4 [3]: about ten times lower
interaction with MEF2 (MEF2): interacted with MEF2
repression of MEF2C mediated transcriptional activation [4]: in a dose-dependent manner
MEF2C mediated transcriptional activation at the 100 ng dose [4]: completely abolished

B2: HDAC9a: alternatively spliced isoform of HDAC9, 879 amino acids (SEQ ID NO: 4); tested as FLAG-tagged protein (protein, listed as Homo sapiens)
chain: MHSMISSVDVKSEVPVGLEPISPLDLRTDLRMMMPVVDPVVREKQLQQELLLIQQQQQIQKQLLIAEFQKQHENLTRQHQAQLQEHIKELLAIKQQQELLEKEQKLEQQRQEQEVERHRREQQLPPLRGKDRGRERAVASTEVKQKLQEFLLSKSATKDTPTNGKNHSVSRHPKLWYTAAHHTSLDQSSPPLSGTSPSYKYTLPGAQDAKDDFPLRKTASEPNLKVRSRLKQKVAERRSSPLLRRKDGNVVTSFKKRMFEVTESSVSSSSPGSGPSSPNNGPTGSVTENETSVLPPTPHAEQMVSQQRILIHEDSMNLLSLYTSPSLPNITLGLPAVPSQLNASNSLKEKQKCETQTLRQGVPLPGQYGGSIPASSSHPHVTLEGKPPNSSHQALLQHLLLKEQMRQQKLLVAGGVPLHPQSPLATKERISPGIRGTHKLPRHRPLNRTQSAPLPQSTLAQLVIQQQHQQFLEKQKQYQQQIHMNKLLSKSIEQLKQPGSHLEEAEEELQGDQAMQEDRAPSSGNSTRSDSSACVDDTLGQVGAVKVKEEPVDSDEDAQIQEMESGEQAAFMQQPFLEPTHTRALSVRQAPLAAVGMDGLEKHRLVSRTHSSPAASVLPHPAMDRPLQPGSATGIAYDPLMLKHQCVCGNSTTHPEHAGRIQSIWSRLQETGLLNKCERIQGRKASLEEIQLVHSEHHSLLYGTNPLDGQKLDPRILLGDDSQKFFSSLPCGGLGVDSDTIWNELHSSGAARMAVGCVIELASKVASGELKNGFAVVRPPGHHAEESTAMGFCFFNSVAITAKYLRDQLNISKILIVDLDVHHGNGTQQAFYADPSILYISLHRYDEGNFFPGSGAPNEVRFISLEPHFYLYLSGNCIA
modifications: FLAG tag
notes: tested as FLAG-tagged protein
HDAC activity relative to the deacetylase activity of HDAC4 [3]: about ten times lower
interaction with MEF2 (MEF2): interacted with MEF2
repression of MEF2C mediated transcriptional activation [4]: in a dose-dependent manner
MEF2C mediated transcriptional activation at the 100 ng dose [4]: completely abolished
